Measured values reported in the RNAGym collection of RNA variant scans (doi:10.1073/pnas.2313332121).

B1: TPR t1 (parent)
chain: GACCAAUCUGCCCUCAGAGCUCGAGAACAUCUUCGGAUGCAGAGGAGGCAGGCUUCGGUGGCGCGAUAGCGCCAACGUCCUCAACCUCCAAUGCAUCCCACCACAUGAUGAUGCCUGAAGAGCCUUGGUUUUUUG

Variants of: B1
Test: polymerase ribozyme fitness, log enrichment relative to wild type (log ratio); higher = more active; in vitro selection for triplet polymerase activity
Summary of the method: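 Mutant libraries for each subunit of a heterodimeric triplet polymerase ribozyme were made by PCR and then transcribed. Each library underwent one round of in vitro selection in triplicate: annealing with a biotinylated primer, the partner subunit and triplets, frozen incubation at −7 °C, gel excision of extended constructs, streptavidin-bead capture and RT-PCR. Input and output libraries were Illumina-sequenced, and only genotypes with ≥10 input reads and ≥1 read per output were kept. Fitness is the logarithm, base 2, of genotype enrichment over wild-type enrichment, computed from inverse-variance-weighted replicate averages.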

Row | Variant | polymerase ribozyme fitness (log ratio)
1 | GACCAAUCGGCCCUCAGAGCUCGAGAACGUCUUCGGAUUCAGAGGAGGCAGGCAUCGGUGGCGCGAUAGCGCCAACGUCCUCUACCUCCAAUGCAUCCCACCACAUGAUGAUGCCUGAAGAGCCUUGGUUUUUUG | -3.38
2 | GACCAAUCGGCCCUCUGAUCUCGAGAACAUCUUCGGGUGCAGUGGAGGCAGGCUUCGGUGGCGCGAUAUCGCCAACGUCCUCAACCUCCAAUGCAUCCCAACACAUGAUGAUGCCUGAAGAGCCUUGGUUUUUUG | -4.92
3 | GACCAAUCGGCCCUCAGAGCUCGAGAACAUCUUCGGAUGCAGAGGAGGCAGGCUUCGGUGGCGCGAUAGCGCCAACGUCCUCAACCUCCAAUGCAUCCCACCACAUGAUGAUGCCUGAAGAGCCUUGGUUUUUUG | 0.36
4 | GACCAAUCGGCCCUCAGAGCUCGAGGACAUCUUCGGAUGCAGAGUAGGCAGGCUUCGGUGGCGCGAUAGCGCUAACGUCCUCAACCUCCAAUGCAUCCUACCACAUGAUGAAGCCUGAAGAGCCUUGGUUUUUUG | -4.85
5 | GACCAAUCCGCCCUCAGAGCUCGAGAACAUCUUCGGAUGCAGAGGAGGCAGGCUUCGGUGGCGCGAUAGCGCCAACGUCCUCAACCUCCAAUGCAUCCCACCACAUGAUGAUGCCCGAAGAGCCUUGGAUUUUUG | -0.962
6 | GACCAAUCGGCCCUCAGAGCUCGAGAACGUCUUCGGAUGCAUAGGAGGCAGGCUUCGGUGGCGCGAUAGCGCCAACGUCCUCAACCUCCAAUGCAUCCCACCACAUGAUGAUGCCUGAAGAGCCUUGGUUUUUUG | -2.93
7 | GACCAAUCGGCCCUCAGAGCUCGAGAUCAUCUUCGGAUGCAGAGGAGGCAGGCUUCGGUGGCGCGAUAGCGCCAACGUCCUCAACCUCCAAUGCAUCCCUCCACAUGAUGAUGCCUGAAGAGCCUUGGUUUUUUG | -3
8 | GACCAAUCGGCCCUCAGAGCUCGGGAACAUCUUCGGAUGCAGAGGAGGCAGGCUUCGGUGGCGCGAUAGCGCUAACGUCCUCAACCUCCAAUGCAUCCCACCACAUGAUGAUGCCUGAAGAGCCUUGGUUUUUUG | -0.355
9 | GACCAAUCGGCCCUCAGAGCUCGAGAACAUCUUCGGCUGCAGAUGAGGCAGGCUUCGGUGGCGCGAUAGCGCCAACGUCCUCAACCUCCAAUGCAUCCCACCACAUGAUGAUGCCUGAAGAGCCUUGGUUUUUUG | -1.47
10 | GACCAAUCGGCCCUCAGAGCUCGAGAACAUCUUCGGUUGCAGAGGAGGCAGGCUUCGGUGGCGCGAUAGCGCCAACGUCCUCAACCUCCAAUGCAUCCCCCCACAUGAUGAUGCCUGAAGAGCCUUGGUUUUUUG | -0.694
11 | GACCAAUCGGCCCUCAGAGCUCGAGAACAUCUUCGGUUGCAAAGCAGGCAGGCUUCGGUGGCGCGAUAGCGCCAACGUCCUCAACCUCCAAUGCGUCCCACCACAUGAUGAUGCCUGAAGAGCCUUGGUUUUUUG | -3.58
12 | GACCAAUCGGCCCUCAGAGCUCGAGACCAUCUUCGGAUGCAGAGGAGGCAGGCUUCGGUGGCGCGAUAGCGCCAACGUCCUCAACCUCCAAUGCAUCCCACCACAUGAUGAUGACUGAAGAGCCUUGGUUUUUUG | -3.98
13 | GACCAAUCGGCCCUCAGAGCUCGAGAGCAUCUUCGGAUGCAGAGGAGGCAGGCUUCGGUAGCGCGCUAGCGCCAACGGCCUCAACCUCCAAUGCAUCCCACCACAUGAUGAUUCCUGAAGAGCCUUGGUUUUUUG | -6.12
14 | GACCAAUCGGCCCUCAGUGCUCGAGAACAUCUUCGGAUGCAGAGGAGGCAGGCUUAGGUGGCGCGAUAGCGCCAACGUCCUCAACCGCCAAUGCAUCCCACCACAUGAUGAUGCCUGAAGAGCCUUGGUUUUUUG | -2.1
15 | GACCAAUCCGCCCUCAGAGCUCGAGAACAUCUUCGGAUGCAGAGGAGGCAGGCUUCGGUGGCGCGAUAGCGCCAACGUCCUCAACCUCCAAAGCAUCCCACCACAUGAUGAUGCCUGAAGAGCCUUGGUUUUUUG | -1.27
16 | GACCAAUCGGCCCUCCGAGCUCGAGAACAUCUUCGGAUGCAGAGGAGGCAGGCUUCGGUGGCGCGAUUGCGCCAACGUCCUCAACCUCCAAUGCAUCCCACCACAUGAAGAUGCCUGAAGAGCCUUGGUUUUUUG | -6.08
17 | GACCAAUCGGCCCUCAGAGCUCGAGCACAUCUUCGGAUGCAGAGGAGGCAGGCUUCGGUGGCGCGAUAGCGCCAACGUCCUCAACCUCCAAUGCAUCCCACCACAUGAUGAUGCCUGAAGAGCCUUGGUUUUUUG | -4.47
18 | GACCAAUCGGCCCUCAGAGCUCGAGAACAUCUUCGGUUGUAGAGAAGGCAGGCUUCGGUGGCGCGAUAGCGCCAACGUCCUCAACCUCCAAUGCAUCCCACCAUAUGAUGAUGCCUGAAGAGCCUUGGUUUUUUG | -0.895
19 | GACCAAUCGGCCCUCUGAGCUCGAGAACAUCUUCGGAUGCAGAGGAGGCAGGCUUCGGCGGCGCGAUAGCGCCAACGUCCACAACCUCCAAUGAAUCCCACCACAUGAUGAUGCCUGAAGAGCCUUGGUUUUUUG | -1.92
20 | GACCAAUCGGCCCUCAGAGCUCGAGACCAUCUUCGGAUGCAGAGGAGGCAGGCUUCGGUGGUGCGAUAGUGCCAACGUCCUCAACCUCCAAUGCAUCUCACCACAUGAUGAUGCCUGAAGAGCCUUGGUUUUUUG | -6.21
21 | GACCAAUCGGCCCUCAGAGCUCGAGCACAUCUUCGGGUGCAGAGGAGGCAGGCUUCGGUGGCGCGAUAGCGCCAACGUCCUCAACCUCCAAUGCAUCCCACCACAUGAUGUUGCCUGAAGAGCCUUGGUUCUUUG | -5.09
